Read-outs that look alike come from different tables or passages of the source.
Key:
[1] = target: T1, H. influenzae Hap adhesin (Haemophilus influenzae, UniProt P45387, S243A); format: cell-based; details: DB117 expressing HapS243A, 13 μM, whole cells
T1 construct: expressed in transfected cells; host or cells: H. influenzae strain DB117 carrying pJS106
T1 sequence (P45387 26-1394 S243A): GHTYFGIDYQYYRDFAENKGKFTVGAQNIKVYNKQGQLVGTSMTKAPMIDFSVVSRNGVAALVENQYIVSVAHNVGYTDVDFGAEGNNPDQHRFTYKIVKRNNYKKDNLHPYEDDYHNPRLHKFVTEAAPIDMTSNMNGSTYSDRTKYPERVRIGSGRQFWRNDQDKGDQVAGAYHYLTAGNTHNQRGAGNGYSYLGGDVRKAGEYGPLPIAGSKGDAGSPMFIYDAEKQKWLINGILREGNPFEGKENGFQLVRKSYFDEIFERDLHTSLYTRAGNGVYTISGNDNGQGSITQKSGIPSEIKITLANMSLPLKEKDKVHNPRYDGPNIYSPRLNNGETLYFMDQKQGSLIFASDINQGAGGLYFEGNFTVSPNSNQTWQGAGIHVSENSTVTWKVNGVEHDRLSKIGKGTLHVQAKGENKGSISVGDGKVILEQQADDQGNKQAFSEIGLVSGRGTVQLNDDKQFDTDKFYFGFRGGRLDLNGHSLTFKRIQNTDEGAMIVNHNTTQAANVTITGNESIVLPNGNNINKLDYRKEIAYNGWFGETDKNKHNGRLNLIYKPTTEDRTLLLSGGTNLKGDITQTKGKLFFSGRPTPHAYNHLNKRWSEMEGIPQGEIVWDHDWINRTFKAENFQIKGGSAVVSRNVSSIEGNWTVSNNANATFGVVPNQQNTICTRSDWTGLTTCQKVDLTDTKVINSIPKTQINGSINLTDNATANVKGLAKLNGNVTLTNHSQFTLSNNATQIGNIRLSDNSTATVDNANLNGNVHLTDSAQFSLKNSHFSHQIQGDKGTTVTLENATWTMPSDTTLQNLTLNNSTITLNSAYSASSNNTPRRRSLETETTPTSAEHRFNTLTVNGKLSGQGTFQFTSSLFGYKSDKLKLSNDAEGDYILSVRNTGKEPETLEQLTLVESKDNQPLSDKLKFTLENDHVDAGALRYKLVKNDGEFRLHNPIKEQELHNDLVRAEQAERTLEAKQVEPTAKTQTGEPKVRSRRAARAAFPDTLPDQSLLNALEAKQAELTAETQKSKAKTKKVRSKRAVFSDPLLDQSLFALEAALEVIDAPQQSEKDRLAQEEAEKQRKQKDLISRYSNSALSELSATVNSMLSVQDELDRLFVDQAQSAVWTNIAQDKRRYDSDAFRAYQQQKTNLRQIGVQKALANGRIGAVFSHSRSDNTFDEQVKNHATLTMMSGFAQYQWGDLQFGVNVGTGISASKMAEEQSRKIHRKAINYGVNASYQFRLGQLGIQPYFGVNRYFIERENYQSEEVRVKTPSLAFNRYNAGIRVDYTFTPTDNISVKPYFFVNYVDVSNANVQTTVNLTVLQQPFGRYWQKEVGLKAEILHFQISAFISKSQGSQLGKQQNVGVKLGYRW

[2] = target: T2, H. influenzae Hap adhesin (Haemophilus influenzae, UniProt P45387); format: cell-based; details: DB117 expressing wild-type Hap, 13 μM
T2 construct: expressed in transfected cells; host or cells: H. influenzae strain DB117 carrying pJS106
T2 sequence (P45387 26-1394): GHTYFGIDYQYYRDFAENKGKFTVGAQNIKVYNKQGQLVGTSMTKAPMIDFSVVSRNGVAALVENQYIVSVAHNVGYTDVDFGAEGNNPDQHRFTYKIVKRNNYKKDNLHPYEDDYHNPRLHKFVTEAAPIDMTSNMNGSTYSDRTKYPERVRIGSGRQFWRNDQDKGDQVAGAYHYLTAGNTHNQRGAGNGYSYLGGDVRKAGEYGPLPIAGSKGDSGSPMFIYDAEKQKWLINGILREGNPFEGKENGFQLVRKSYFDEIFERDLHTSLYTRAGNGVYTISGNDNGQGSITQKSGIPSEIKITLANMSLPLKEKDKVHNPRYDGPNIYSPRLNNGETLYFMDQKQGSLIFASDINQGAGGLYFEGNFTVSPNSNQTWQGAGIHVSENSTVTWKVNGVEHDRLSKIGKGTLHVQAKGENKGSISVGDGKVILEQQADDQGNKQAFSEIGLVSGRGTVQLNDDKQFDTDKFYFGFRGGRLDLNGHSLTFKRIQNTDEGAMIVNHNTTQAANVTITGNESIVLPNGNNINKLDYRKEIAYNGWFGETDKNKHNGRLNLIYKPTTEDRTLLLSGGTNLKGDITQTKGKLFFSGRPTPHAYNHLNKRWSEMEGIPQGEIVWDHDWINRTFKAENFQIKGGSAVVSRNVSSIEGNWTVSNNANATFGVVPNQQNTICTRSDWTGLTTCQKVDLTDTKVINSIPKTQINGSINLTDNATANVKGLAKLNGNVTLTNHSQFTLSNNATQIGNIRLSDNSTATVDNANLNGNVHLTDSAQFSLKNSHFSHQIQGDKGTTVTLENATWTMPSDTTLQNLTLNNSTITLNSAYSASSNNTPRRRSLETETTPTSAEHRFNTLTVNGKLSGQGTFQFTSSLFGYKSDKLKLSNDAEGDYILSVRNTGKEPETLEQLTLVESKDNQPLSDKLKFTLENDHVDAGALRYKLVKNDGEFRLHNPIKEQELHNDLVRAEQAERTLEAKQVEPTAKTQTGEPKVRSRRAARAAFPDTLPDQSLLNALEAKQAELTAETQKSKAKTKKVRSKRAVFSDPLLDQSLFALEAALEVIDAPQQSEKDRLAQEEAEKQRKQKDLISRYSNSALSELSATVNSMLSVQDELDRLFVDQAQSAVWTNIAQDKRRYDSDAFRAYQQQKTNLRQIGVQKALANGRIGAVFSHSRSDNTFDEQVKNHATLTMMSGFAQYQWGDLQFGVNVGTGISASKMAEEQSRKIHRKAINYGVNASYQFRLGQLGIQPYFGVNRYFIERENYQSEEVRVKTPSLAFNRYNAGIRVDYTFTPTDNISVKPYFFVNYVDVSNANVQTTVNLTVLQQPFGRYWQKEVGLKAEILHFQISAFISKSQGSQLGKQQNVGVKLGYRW

[3] = test system: H. influenzae Hap adhesin; format: cell-based, Haemophilus influenzae; details: lowest concentration (87 nM), treatment of cells for 1 hour
[4] = target: H. influenzae IgA1 protease precursor (Haemophilus influenzae, UniProt P44969, S288V)
Experimental: The Rd strain was grown in brain heart-infusion broth supplemented with hemin (10 μg/ml) and nicotinamide adenine dinucleotide (2 μg/ml) to mid-log phase, and then harvested by centrifugation.
All samples were collected in sterile beakers; within 6 hours of collection they were centrifuged at 10,000×g for 20 min at 4 C to remove lipids and cells. The resulting whey was stored at −70 C and was prepared for use by thawing slowly, without further modifications. 2×10^9 H. influenzae cells were resuspended in 1 ml of the unmodified human milk whey and incubated at 37 C with gentle mixing. Samples were removed at intervals between 2 minutes and 1 hour. Whole cells and supernatants were examined by Western immunoblot using antisera directed against all domains of the preprotein.
Mid-log phase Rd3-13 bacteria were incubated in milk whey, and aliquots were removed at the times shown.
The antiserum used was anti-Rd3-13, which reacts with IgAp, IgAa, and IgAb.

[5] = target: peptide fragments of IgA1 protease (Haemophilus influenzae, UniProt P44969); details: 60 amino acid peptide ending at Arg1397; similar with the 80, 40 and 20 amino acid peptides
Experimental: To further define the site of cleavage of the IgA1 protease precursor protein, N-Iga was resolved on an SDS-PAGE gel, then stained with Coomassie blue and excised. The excised band was subjected to Lys-C digestion, and mass spectrometry was performed. […] Subsequently, these peptides were treated with lactoferrin and then examined the reaction mixtures by mass spectrometry.
Digests involving lactoferrin and synthetic peptides were extracted twice with 50 μL acetonitrile/2% TFA and then dried and resuspended in matrix solution for analysis by MALDI mass spectrometry.

[6] = target: T3, 20 amino acid peptide Ala1007-Phe1026 of Hap (Haemophilus influenzae, UniProt P45387); experiment: Lactoferrin cleavage of synthetic Hap peptide, mass spectrometry; format: biochemical
T3 construct: a 20 amino acid peptide corresponding to residues Ala1007-Phe1026 of Hap was synthesized; made in house; host or cells: chemical synthesis (f-moc), Protein Chemistry Laboratory at Tufts University
Source text: Next, a 20 amino acid peptide corresponding to residues Ala1007-Phe1026 of Hap was synthesized and subjected to cleavage by milk lactoferrin.

Sequence of H. influenzae IgA1 protease precursor (P44969 26-1694 S288V): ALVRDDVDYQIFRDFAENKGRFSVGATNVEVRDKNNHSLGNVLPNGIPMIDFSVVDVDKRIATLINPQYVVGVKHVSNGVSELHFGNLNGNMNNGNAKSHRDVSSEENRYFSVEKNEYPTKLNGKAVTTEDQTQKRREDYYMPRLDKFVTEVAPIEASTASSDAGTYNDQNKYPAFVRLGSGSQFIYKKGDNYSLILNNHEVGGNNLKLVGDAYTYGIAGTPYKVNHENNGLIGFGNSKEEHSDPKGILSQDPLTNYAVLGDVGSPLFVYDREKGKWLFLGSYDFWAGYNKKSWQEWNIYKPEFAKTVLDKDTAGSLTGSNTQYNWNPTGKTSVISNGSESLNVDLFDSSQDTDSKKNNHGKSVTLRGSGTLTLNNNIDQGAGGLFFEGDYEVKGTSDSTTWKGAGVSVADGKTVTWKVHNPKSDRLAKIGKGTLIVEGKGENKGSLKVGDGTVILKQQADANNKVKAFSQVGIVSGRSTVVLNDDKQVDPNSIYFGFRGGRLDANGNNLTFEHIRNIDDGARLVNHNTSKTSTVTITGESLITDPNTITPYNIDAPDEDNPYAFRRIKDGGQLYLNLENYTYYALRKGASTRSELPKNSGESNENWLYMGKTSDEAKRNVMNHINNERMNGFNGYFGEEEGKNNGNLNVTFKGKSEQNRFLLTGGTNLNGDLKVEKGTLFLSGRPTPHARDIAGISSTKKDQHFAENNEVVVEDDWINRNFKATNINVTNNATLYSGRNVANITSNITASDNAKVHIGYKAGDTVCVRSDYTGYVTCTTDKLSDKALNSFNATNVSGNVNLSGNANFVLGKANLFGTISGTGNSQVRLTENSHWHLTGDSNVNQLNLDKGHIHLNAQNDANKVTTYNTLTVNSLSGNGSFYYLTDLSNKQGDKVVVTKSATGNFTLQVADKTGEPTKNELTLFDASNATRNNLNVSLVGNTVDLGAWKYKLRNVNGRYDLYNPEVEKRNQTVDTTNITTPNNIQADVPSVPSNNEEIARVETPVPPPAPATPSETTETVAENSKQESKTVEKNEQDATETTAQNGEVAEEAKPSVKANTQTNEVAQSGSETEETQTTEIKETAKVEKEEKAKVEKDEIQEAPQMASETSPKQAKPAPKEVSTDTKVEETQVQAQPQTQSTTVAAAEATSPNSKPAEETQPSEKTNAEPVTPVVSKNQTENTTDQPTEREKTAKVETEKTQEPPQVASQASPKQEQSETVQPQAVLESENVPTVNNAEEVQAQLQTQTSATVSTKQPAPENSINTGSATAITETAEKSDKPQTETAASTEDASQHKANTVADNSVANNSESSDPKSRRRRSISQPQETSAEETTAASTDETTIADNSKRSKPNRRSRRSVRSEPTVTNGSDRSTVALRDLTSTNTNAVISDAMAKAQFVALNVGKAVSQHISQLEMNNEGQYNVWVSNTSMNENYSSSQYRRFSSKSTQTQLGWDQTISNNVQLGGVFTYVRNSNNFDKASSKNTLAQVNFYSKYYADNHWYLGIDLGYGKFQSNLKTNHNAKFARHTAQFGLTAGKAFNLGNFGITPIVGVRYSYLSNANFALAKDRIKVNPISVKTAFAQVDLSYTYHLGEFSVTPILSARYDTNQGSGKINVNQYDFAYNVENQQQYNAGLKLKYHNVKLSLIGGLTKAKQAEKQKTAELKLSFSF
Sequence of peptide fragments of IgA1 protease (P44969 1338-1397): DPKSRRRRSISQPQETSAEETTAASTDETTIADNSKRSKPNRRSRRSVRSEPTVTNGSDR

B1: human milk lactoferrin: lactoferrin purified from human milk whey using anion exchange and molecular sieve chromatography (protein, UniProt P02788 20-710, looked up)
Lactotransferrin: GRRRSVQWCAVSQPEATKCFQWQRNMRKVRGPPVSCIKRDSPIQCIQAIAENRADAVTLDGGFIYEAGLAPYKLRPVAAEVYGTERQPRTHYYAVAVVKKGGSFQLNELQGLKSCHTGLRRTAGWNVPIGTLRPFLNWTGPPEPIEAAVARFFSASCVPGADKGQFPNLCRLCAGTGENKCAFSSQEPYFSYSGAFKCLRDGAGDVAFIRESTVFEDLSDEAERDEYELLCPDNTRKPVDKFKDCHLARVPSHAVVARSVNGKEDAIWNLLRQAQEKFGKDKSPKFQLFGSPSGQKDLLFKDSAIGFSRVPPRIDSGLYLGSGYFTAIQNLRKSEEEVAARRARVVWCAVGEQELRKCNQWSGLSEGSVTCSSASTTEDCIALVLKGEADAMSLDGGYVYTAGKCGLVPVLAENYKSQQSSDPDPNCVDRPVEGYLAVAVVRRSDTSLTWNSVKGKKSCHTAVDRTAGWNIPMGLLFNQTGSCKFDEYFSQSCAPGSDPRSNLCALCIGDEQGENKCVPNSNERYYGYTGAFRCLAENAGDVAFVKDVTVLQNTDGNNNEAWAKDLKLADFALLCLDGKRKPVTEARSCHLAMAPNHAVVSRMDKVERLKQVLLHQQAKFGRNGSDCPDKFCLFQSETKNLLFNDNTECLARLHGKTTYEKYLGPQYVAGITNLKKCSTSPLLEACEFLRK
effect on Hap preprotein [1]: loss of the Hap preprotein and generation of a Hap C-terminal fragment
effect on Hap [2]: resulted in proteolysis, rather than extraction of Hap
proteolysis of Hap [3]: proteolysis detectable but incomplete
removal of IgA protease precursor ([4]; Rd3-13, 30 min. incubation, bacterial cell pellet): small amount of precursor protein remaining
removal of IgA protease precursor ([4]; Rd3-13, after 15 minutes): a large amount of precursor has been proteolytically removed
cleavage site in IgA1 protease peptides [5]: cleavage between Arg1382 and Arg1383 and between Arg1383 and Ser1384
cleavage site in Hap peptide [6]: cleavage between Arg1019 and Arg1020 and between Arg1020 and Ala1021
